Experimental data taken from US20210347900A1.

Assays:
[1] = biological target: recombinant human LOX1 (R&D Systems) (human) (UniProt P78380); assay: competition with biotin CRP on plate-bound recombinant human LOX1, DELFIA
[2] = biological target: human LOX1 on cells (human LOX1 transfected CHO TREX cells) (human) (UniProt P78380); assay: cell-based or functional assay
[3] = biological target: human LOX1 on cells (human LOX1 transfected CHO TREX cells) (human) (UniProt P78380); assay: competition with DyLight 649 AGE-BSA on human LOX1 CHO TREX cells, FMAT
[4] = biological target: human LOX1 on cells (human LOX1 transfected CHO TREX cells) (human) (UniProt P78380); assay: competition with DyLight 649 oxLDL on human LOX1 CHO TREX cells, FMAT

23C11, commercially available mouse anti-LOX-1 antibody
IC50 (read off the curve) [1]: 10 nM | IC50 of inhibition of Cypher 5E oxLDL internalization in hLOX1 CHO TREX cells (row label not given; assay assigned by block order of Table 5) [2]: 2.85 nM | IC50 of inhibition of oxLDL-dependent ROS generation in hLOX1 CHO TREX cells (row label not given; assay assigned by block order of Table 5) [2]: 10.1 nM | IC50 (read off the curve) [3]: 2 nM | IC50 (read off the curve) [4]: 3 nM
